Test results published in the DeepSol protein solubility set.

test: soluble on expression in E. coli; label from the status in PepcDB or PDB records

Soluble on expression in E. coli, soluble:
MKVLTVFGTRPEAIKMAPLVHALAKDPFFEAKVCVTAQHREMLDQVLKLFSIVPDYDLNIMQPGQGLTEITCRILEGLKPILAEFKPDVVLVHGDTTTTLATSLAAFYQRIPVGHVEAGLRTGDLYSPWPEEANRTLTGHLAMYHFSPTETSRQNLLRENVADSRIFITGNTVIDALLWVRDQVMSSDKLRSELAANYPFIDPDKKMILVTGHRRESFGRGFEEICHALADIATTHQDIQIVYPVHLNPNVREPVNRILGHVKNVILIDPQEYLPFVWLMNHAWLILTDSGGIQEEAPSLGKPVLVMRDTTERPEAVTAGTVRLVGTDKQRIVEEVTRLLKDENEYQAMSRAHNPYGDGQACSRILEALKNNRISLGSHHHHHH, MDKIKVGLQYWIPQHALTRLVGKLASARAGSLTTAIIRWFIKQYNVNMDEALHSDPTHFKTFNEFFVRELKAGVRPIAEGEKVITHPADACVSQFGAIEYGKLIQAKGHTYSAQELLGGDAKLAEEFRDGDFATLYLSPRDYHRVHMPCDGTLRQMIYVPGDLFSVNPLTAENVPNLFARNERVVCIFDTEFGPMAQVLVGATIVGSIELVWAGTVTPPRGNTVYRWDYPANGNQAVVLKKGEEMGRFKLGSTVINLFAKQAIRFDDSMALGAPTRMGEPYAHQA, MSQLVYFSSSSENTQRFIERLGLPAVRIPLNERERIQVDEPYILIVPSYGGGGTAGAVPRQVIRFLNDEHNRALLRGVIASGNRNFGEAYGRAGDVIARKCGVPWLYRFELMGTQSDIENVRKGVTEFWQRQPQNA, MSRLLALLALAPLLAGAAETTAPKPPSAFTVEAQRRVEAELPFADRADFERADRGLIRRPERLLIRNPDGSVAWQLGGYDFLLDGKPRDSINPSLQRQALLNLKYGLFEVAEGIYQVRGFDLANITFIRGDSGWIVVDTLTTPATARAAYELVSRELGERPIRTVIYSHAHADHFGGVRGLVEPQQVASGAVQIIAPAGFMEAAIKENVLAGNAMMRRATYQYGTQLPKGPQGQVDMAIGKGLARGPLSLLAPTRLIEGEGEDLVLDGVPFTFQNTPGTESPAEMNIWLPRQKALLMAENVVGTLHNLYTLRGAEVRDALGWSKYINQALHRFGRQAEVMFAVHNWPRWGNAEIVEVLEKQRDLYGYLHDQTLHLANQGVTIGQVHNRLRLPPSLDQEWYDRGYHGSVSHNARAVLNRYLGYYDGNPATLDPLSPEDSAGRYVEYMGGAERLLEQARASYARGEYRWVVEVVNRLVFAEPDNRAARELQADALEQLGYQAENAGWRNSYLSAAYELRHGVPRDQPTMKAGSADALAAMDTGLLFDYLGVRLDAGAAEGKALSINLRLPDIGENYLLELKNSHLNNLRGVQSEDAGQTVSIDRADLNRLLLKEVSAVRLVFEGKLKSSGNPLLLGQLFGMLGDFDFWFDIVTPAAKSEG, DNKINIGLAVMKILESWGADTIYGIPSGTLSSLMDAMGEEENNVKFLQVKHEEVGAMAAVMQSKFGGNLGVTVGSGGPGASHLINGLYDAAMDNIPVVAILGSRPQRELNMDAFQELNQNPMYDHIAVYNRRVAYAEQLPKLVDEAARMAIAKRGVAVLEVPGDFAKVEIDNDQWYSSANSLRKYAPIAPAAQDIDAAVELLNNSKRPVIYAGIGTMGHGPAVQELARKIKAPVITTGKNFETFEWDFEALTGSTYRVGWKPANETILEADTVLFAGSNFPFSEVEGTFRNVDNFIQIDIDPAMLGKRHHADVAILGDAALAIDEILNKVDAVEESAWWTANLKNIANWREYINMLETKEEGDLQFYQVYNAINNHADEDAIYSIDVGNSTQTSIRHLHMTPKNMWRTSPLFATMGIAIPGGLGAKNTYPDRQVWNIIGDGAFSMTYPDVVTNVRYNMPVINVVFSNTEYAFIKNKYEDTNKNLFGVDFTDVDYAKIAEAQGAKGFTVSRIEDMDRVMAEAVAANKAGHTVVIDCKITQDRPIPVETLKLDSKLYSEDEIKAYKERYEAANLVPFREYLEAEGLESKYIK, MIMQKRLLNRNSSVVKSRNCLARHQHESSISKLHVSLRLHRCLRPIVRFDFLHNAGSKVCSQNSCPSPQLHVGTMALFHTVFILWPHFCGILWTVHEKLYNYLLSIEVY, MKICAVVVTYNRKDLLVECLEALRRQTGPLDAIYIIDNASTDGTPHLLMEGGYIDDPDGSVKNLPDHHGRSLKIVYVRLNENTGGAGGFYKGVRRAFHDEYDWIWLMDDDVEPEEYTLEKLLKASERIPEDVSAVAPVRFFQGSLFISETKTFNFRNPLKHFTYDFITDDDLKEEYFKISAISFEGLLIKREAIERIGFPDKSLFIIADDTDYAIRLRDYGPIYMVSGARLIKKVAAEPDFNWKGFYHLRNVIYLDRKYGENILVRYLRPLRTLIIVTYQCLKYKPSGFKYLLKAFWEGYTLKRGKTVKPGEFLEHHHHHH, MSLVLLYTPKQKTKNVQTITADILDLDYQGLGVAKINGKTWFIENALPHEKVECRILEDKRQYGHAIVKKWRVKSPERLEPKCAHFMRCGGCQGQHIPIEMQRKAKESALFKRLSKLQSEPISFQPMICGDAWAYRRRVRLSLWFNPSTKQIEMGFRQKNTNDLIPVQSCEVAEPAINYLLPKLTALLEKFSAPKQLGHIELVAADNGVAMLLRYTKNLAEIDRTLLLKFAEQEKLMLFLQSDKGIEQIYGDAPYYQFSDGIKLHFDIRDFIQVNSALNEPMVNTALDWLELSQQDCVLDLFCGMGNFTLPLAKRVKSAVGIEGVFEMVQKAAQNAERNQIKNIEFFQADLDQSFVEQPWANQSFNKILLDPPRSGAAFALNALCELKAEKILYVSCNPATLVRDAEILCNFGYKIEKSAVIDMFPHTGHLESITLFTTKEGHHHHHH, MNFKESRAIYLQIADRICDDILLGQYEEEGRIPSVREYASIVEVNANTVMRSYEYLQSQEVIYNKRGIGFFVASGAKMLIHSLRKEQFLKEEVGSFFRQLYTLGISIKEIEKMYYEFIQRQNQ

Soluble on expression in E. coli, not soluble:
MGRMSEKLGQDIKQSIFKVPPLIQKSDIDPEHCRVSAQLDDNVDDNIPLRVMLLLMDEVFDLKDRNQWLRRNIKNLLQQLIKATYGDTINRKIVDHVDNMTSPEQVSDYVKRFRDSYWPNGILAETPPRRDKNLRMRTRVAAKTTLLGIMPDELKHIIGADTTRKGILRVFEMFQHQPLNRRLVYVFLEGFLETLFPQYKFPELFEKLHSRSPRVLKYSHKLRSLQKR, MGSDKIHHHHHHMTDTISYQYAAPSVLQRSSDQDELFLAKYSEIEKKEAPCFFWGKLTQPYMTARCLIALSNVVQSSFNLTPAQLSMLKDPIVTAGNERLRFEGFSNCAGVYARVDVLPDGHDGEFLENGTTNVDFNAGMISALGSISKQEKVVMSVGPKEVGLYNKGEKVIERKVPLPVKWIKGLTTVQIYQSVAERMYSFNRIQTLQLFQTLPKGTVKCDYYLVMRGQKPAFSPVKSLNAVCIGGVHRLRLLEPLLPFADELRVFVHPTMQSTIWQLYFGPVRFSLSLSRECWRGFSGEGAALDALLEDVPEKWIAAMDKYSYANQQFNPTLFAIEEHIDLDKVDSLSARLAAMGLLGFDLDDNSFFYRRLPFKTERILSLNPRMIAAEKLLEEEKVEIISNDGNRTEARVAGSGGVRHTVILDRESEKERCTCTWFSGNQGERGACKHILAVKKRVQWKN, METMTELNTKEMKLDALLKDMQSVVIAFSGGVDSSLLLKKAIDILGVNYVKPVVVKSELFRNEEFELALKLGQSLGVEVLETEMSELQDANIVKNTPESWYYSKRLMYSQLENIKNKLGFNYVLDGMIMDDLDDFRPGLKARDDFGVRSVLQEAKLYKSEVRELSHQHDLPVWNKPALCSLASRIPYGEELSFTKVNKVNEAEKFILSLGINHVRVRYHHNIARIEVTEDQLNNLLKLKDSIILHLKELGFDYVTMDLEGYRTGSMNEIIDTKSTSFK, MRLSRSSHHKTLDEYDFSFQPDLDPRKVRDLATLSFVEGRANAALLGVLVADEVGYQPLERAEARLVFQVISKRYEKGSIILASNKTFSEWGQVGPGFGDEVLATALLGRLLDHCDVISINGPGYRLRNRLKAIERENDVALEHHHHHH, MGSDKIHHHHHHMKAYLVGLYTLTPTHPGSGTELGVVDQPIQRERHTGFPVIWGQSLKGVLRSYLKLVEKVDEEKINKIFGPPTEKAHEQAGLISVGDAKILFFPVRSLKGVYAYVTSPLVLNRFKRDLELAGVKNFQTEIPELTDTAIASEEITVDNKVILEEFAILIQKDDKGILESVVKAIEQAFGNEMAEKIKGRIAIIPDDVFRDLVELSTEIVARIRINAETGTVETGGLWYEEYIPSDTLFYSLILVTPRAKDNDMALIKEVLGKINGKYLQIGGNETVGKGFVKVTLKEVTNNGGTHAK, MNVNAETEDATLLLDGLLQNVAIIRFDTNKKVTYANALFAEAMGYTEEEMLQLSHPDLCFPDFVQTASYKEMWTNLLAGQKFQNKIERKNARGERVWFEATYIPIIREETVVGVAKIATDIT, MWRTEMRKFLVVLDDSRECLNAMRFAAMRAAHTGGGVAILSIIPPDEFNHWIGVGEVMREEARERIHAHFEVFAKWMRDKQGVEPELVIREGEAVPEIIAHVQEDPEIGVLVLGAGTDKKGPGPLVSQLSRSSGSLPIPITIVPGDLSKEKLEAIT, MANPRGFCAGVDRAISIVENALAIYGAPIYVRHEVVHNRYVVDSLRERGAIFIEQISEVPDGAILIFSAHGVSQAVRNEAKSRDLTVFDATCPLVTKVHMEVARASRRGEESILIGHAGHPEVEGTMGQYSNPEGGMYLVESPDDVWKLTVKNEEKLSFMTQTTLSVDDTSDVIDALRKRFPKIVGPRKDDICYATTNRQEAVRALAEQAEVVLVVGSKNSSNSNRLAELAQRMGKHAFLIDDAKDIQEEWVKEVKCVGVTAGASAPDILVQNVVARLQQLGGGEAIPLEGREENIVFEVPKELRVDIREVD, MTLPIRNVAIIAHVDHGKTTLVDALLKQSGIFREGEDVPDCVMDSNALERERGITILSKNTAVRYKETLINIVDTPGHADFGGEVERVLGMVDGCLLIVDANEGPMPQTRFVLKKALEKGLRPIVVVNKIDRGQADPHVAVDKVLDLFLELGADEDQCDFPYLFASGMGGYAKENLEAESVDMQPLFDAILRHVPAPVGDPNKPLQLQVTTLDYSEYLGRIVIGRIHNGTIRAGQQAALVVEDGSIVKGKITKLMGFEGLKRVEMTEATAGYIVAVAGFADAYIGETITDPNEPQALPLIKVDEPTLQMTFWVNDSPFAGQEGKLVTSRQVRDRLFRELETNVALRVEETDSPDKFLVSGRGELHLGILIETMRREGFEFQVSQPQVIYRTVNGQPCEPYELLVLDVPADAVGSCIERLGQRKGEMQDMQPVAGDRTQLEFVIPARGLIGFRGEFMRMTRGEGIMNHSFLDYRQLSGDIEARNKGVLISFEEGISTFYAMKNAEDRGSFFITPGTKVYRGMIVGEHNRPQDLELNVCKTKQLTNHRASGGDELVQLQAPVDMSLERALEYIGPDELVEVTPQSIRLRKMAKKLAKR, MSDGSVERGTKRAEDSLATHQLTVQYKRYYIDVNENTRGRYIKIAELGTNYKSRIILSIVAAKAIVSEISKMLALIDEPSTGEHAPKESSLIKSETLNVDGRKFYVDLKENVRGRFLRIAQMPMNPRQTRQQIAIPSDGIAEIHKVLTEYLAKFGEGHEQENTNTPKITAENKSFLFHSGKNDRGEFVRISEIKLNSGYRNAITVPMSALVDFRKELDNIIANQGK, MTKNTSYHYSIIIPHKNTPRLLERCLCSIPTWDEIQIIIIDDNSNSESVDFSHFPGNGRKNTEVLFTKEGKGAGYARNIGLSHARGKWIIFADADDFFTADCFTILNEYMDSPHEVIYFNVRFVMSDNPSQESRRGTYYTNFFNDVNPENKLRYQSQVPWGKMIRRSFLSTFHIQFDETRIANDVYFSCLVGIYAPKATTDRRIIYYCTESGQSLAMSKQDRESLIIRFNASMKCNRLLRQEKIHYYLSPLPWCIPSAKTKEWLPAKYFFEYLFFFRLQAFKELYYAFSAILSHMNEPATKETDNQCNKKTTNLRE
